# From the supplement of paper PMC10567573
# B1: INTS4 (parent)
# chain: TIIEPAGESDNPLRFTSGLVVALD
# B2: GLTSCR2 (parent)
# chain: FQRRNMIEPRERAKFKRKYKVKLV
# Variants of: B1
# Assay: protein stability index of a GFP-peptide fusion (GPS, HEK-293T) (PSI 1-6); higher = more stable
# Conditions: c terminus: a fixed tail appended
# 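Further: lentivirally expressed fusions sorted by FACS into six bins by GFP to DsRed ratio, PSI derived from sequencing read proportions per bin multiplied by bin number.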
row,Variant,protein stability index
1,TIIEPAGESENPLRFTSGLVVALD,2.62
2,TIIEPAGESINPLRFTSGLVVALD,2.08
3,TIIEPAGESDNPLRFTSGLVSALD,3.51
4,TIIEPAGESDNPLRFTSGLVLALD,2.89
5,TIIEPAGESDNPLRFTSGLVGALD,3.65
6,TIIEPAGESDNPLRFTSGLVVAED,4.4
7,TIIEPAGESDNPLRFTSGLVVRLD,2.93
8,TIIEPAGESDNPLRFTSGLVVHLD,2.78
9,TIIEPAGESDNPLRFTSGLVVELD,4.07
10,TIIEEAGESDNPLRFTSGLVVALD,3.31
11,TKIEPAGESDNPLRFTSGLVVALD,2.89
12,TIIEPACESDNPLRFTSGLVVALD,2.56
13,TIIEPANESDNPLRFTSGLVVALD,2.77
14,TIIEPAGESDNPLRFTSALVVALD,2.42
15,TIIEPAGESDNPLRFTSYLVVALD,1.89
16,TIIEPAGESDNPLRFTSHLVVALD,2.21
17,TIIEPAGESDNPLRFTSKLVVALD,2.77
18,TIIEPFGESDNPLRFTSGLVVALD,2.52
19,TIIEPAGESDNPLRFTSGYVVALD,2.62

row,Variant,protein stability index
1,TIIEPAGESDNPLRFTSGMVVALD,2.83
2,TIIEPAGESDNPLRFTSGSVVALD,4.77
3,TIIEPAGESDNNLRFTSGLVVALD,2.88
4,TIIEPAGESDNQLRFTSGLVVALD,3.73
5,TIIEPAGESDNELRFTSGLVVALD,3.13
6,TIIEPAGESDNPLRFTSGLVVALW,2.4
7,TIIEPAGESDNPLRFTSGLVVALP,2.31
8,TIIEPAGESDNPLRFTSGLVVALY,2.31
9,TIIEPAGESDNPLRFTSGLVVALL,1.73
10,TIMEPAGESDNPLRFTSGLVVALD,3.23
11,TIFEPAGESDNPLRFTSGLVVALD,2.38
12,TIIEPAGESDNPLCFTSGLVVALD,2.62
13,TIIEPAGESDNPLHFTSGLVVALD,3.91
14,TIIEPAGESDNPLDFTSGLVVALD,3.93
15,TIIEPAGESDNPLRFTTGLVVALD,2.92
16,TIIEPAGESDNPLRFTHGLVVALD,2.5
17,TIIEPAGESDNPLRFTSGLIVALD,2.73
18,TIIEPAGESDNPLRFTSGLAVALD,2.95
19,TIIEPAGESDNPLRFTSGLNVALD,3.46

row,Variant,protein stability index
1,TIIEPAGESDNPLRFTSGLQVALD,3.91
2,TIIEPAGESDNPLRFTSGLYVALD,2.44
3,TIIEPAGEEDNPLRFTSGLVVALD,3.73
4,TIIEPAGENDNPLRFTSGLVVALD,3.25
5,TIIEPAGEFDNPLRFTSGLVVALD,2.65
6,TIIEPAGEYDNPLRFTSGLVVALD,2.48
7,HIIEPAGESDNPLRFTSGLVVALD,3.23
8,TIIEPAGESDNPLRFLSGLVVALD,1.99
9,TIIEPAGESDNPLRFQSGLVVALD,3.35
10,TIIEPAGESDNPLRFASGLVVALD,2.74
11,TIIEPAGESDNPLRFKSGLVVALD,3.02
12,TIIEPAGESDNPLRFMSGLVVALD,2
13,TIIEPAGESDPPLRFTSGLVVALD,2.27
14,TIIEPAGYSDNPLRFTSGLVVALD,1.99
15,TIIEPAGMSDNPLRFTSGLVVALD,2.54
16,TIIEPAGTSDNPLRFTSGLVVALD,2.61
17,TIIEPAGCSDNPLRFTSGLVVALD,2.2
18,TIIEPAGNSDNPLRFTSGLVVALD,2.23

# Variants of: B2
# Assay: as above
# Conditions: c terminus: a fixed tail appended
row,Variant,protein stability index
1,FQRRNMIEPRERAKFKRWYKVKLV,2.3
2,FQRRNMIEPRERAKFKRPYKVKLV,1.92
3,FQRRNMIEPRERAKFKRLYKVKLV,1.72
4,FQRRNMIEPRERAKFKRCYKVKLV,2.05
5,FQRRNMIEPRERAKFKRRYKVKLV,2.32
6,FQRRNMIEPRERAKFKRFYKVKLV,1.61
7,FQRRNMIEPRERAKFKRSYKVKLV,2.63
8,FQRRNMIEPRERAKFKREYKVKLV,2.39
9,FQRRNMIEPRERAKFKRQYKVKLV,2.51
10,FQRRNMIEPRERAKFKRNYKVKLV,2.4
11,FQRRNMIEPRERAKFKRTYKVKLV,2.24
12,FQRRNMIEPRERAKFKRGYKVKLV,1.98
13,FQRRNMIEPRERAKFKRVYKVKLV,2.78
14,FQRRNMIEPRERAKFKRYYKVKLV,1.71
15,FQRRNMIEPRERAKFKRHYKVKLV,2.29
16,FQRRNMIEPRERAKFKRDYKVKLV,2.64
17,FQRRNMIEPRERAKFKRIYKVKLV,2.45
18,FQRRNMIEPRERAKFKRMYKVKLV,2.22
19,FQRRNMIEPRERAKFKRKYQVKLV,1.93
20,FQRRNMIEPRERAKFKRKYRVKLV,2.1
21,FQRRNMIEPRERAKFKRKYTVKLV,2.34
22,FQRRNMIEPRERAKFKRKYEVKLV,3.17

row,Variant,protein stability index
1,FQRRNMIEPRERAKFKRKYAVKLV,3.25
2,FQRRNMIEPRERAKFKRKYLVKLV,2.08
3,FQRRNMIEPRERAKFKRKYGVKLV,2.22
4,FQRRNMIEPRERAKFKRKYVVKLV,1.99
5,FQRRNMIEPRERAKFKRKYCVKLV,1.93
6,FQRRNMIEPRERAKFKRKYSVKLV,2.74
7,FQRRNMIEPRERAKFKRKYHVKLV,2.62
8,FQRRNMIEPRERAKFKRKYFVKLV,2.52
9,FQRRNMIEPRERAKFKRKYNVKLV,2.19
10,FQRRNMIEPRERAKFKRKYIVKLV,2.07
11,FQRRNMIEPRERAKFKRKYMVKLV,2.14
12,FQRRNMIEPRERAKFKRKYDVKLV,2.09
13,FQRRNMIEPRERAKFKRKYYVKLV,1.65
14,FQRRNMIEPRERAKFKRKYPVKLV,1.95
15,FQRRNMIEPRERAKFKRKYWVKLV,2.04
16,FQRRNMIEPRERAKFKRKYKVKSV,2.61
17,FQRRNMIEPRERAKFKRKYKVKIV,2.52
18,FQRRNMIEPRERAKFKRKYKVKAV,2.72
19,FQRRNMIEPRERAKFKRKYKVKTV,2.25
20,FQRRNMIEPRERAKFKRKYKVKWV,2.15
21,FQRRNMIEPRERAKFKRKYKVKQV,3.43
22,FQRRNMIEPRERAKFKRKYKVKHV,2.31

row,Variant,protein stability index
1,FQRRNMIEPRERAKFKRKYKVKRV,3.21
2,FQRRNMIEPRERAKFKRKYKVKCV,2.73
3,FQRRNMIEPRERAKFKRKYKVKFV,1.71
4,FQRRNMIEPRERAKFKRKYKVKGV,3.17
5,FQRRNMIEPRERAKFKRKYKVKMV,1.69
6,FQRRNMIEPRERAKFKRKYKVKYV,2.46
7,FQRRNMIEPRERAKFKRKYKVKPV,2.12
8,FQRRNMIEPRERAKFKRKYKVKEV,2.56
9,FQRRNMIEPRERAKFKRKYKVKNV,2.75
10,FQRRNMIEPRERAKFKRKYKVKKV,2.41
11,FQRRNMIEPRERAKFKRKYKVKVV,2.13
12,FQRRNMIEPRERAKFKRKYKVKDV,3.1
13,FQRRNMIEPRERAKFKRKYKFKLV,2.55
14,FQRRNMIEPRERAKFKRKYKMKLV,2.34
15,FQRRNMIEPRERAKFKRKYKAKLV,2.67
16,FQRRNMIEPRERAKFKRKYKCKLV,2.97
17,FQRRNMIEPRERAKFKRKYKRKLV,2.86
18,FQRRNMIEPRERAKFKRKYKTKLV,3.07
19,FQRRNMIEPRERAKFKRKYKIKLV,2.35
20,FQRRNMIEPRERAKFKRKYKLKLV,2.28
21,FQRRNMIEPRERAKFKRKYKNKLV,2.87
22,FQRRNMIEPRERAKFKRKYKWKLV,2.44

row,Variant,protein stability index
1,FQRRNMIEPRERAKFKRKYKYKLV,2.61
2,FQRRNMIEPRERAKFKRKYKPKLV,2.33
3,FQRRNMIEPRERAKFKRKYKEKLV,2.46
4,FQRRNMIEPRERAKFKRKYKGKLV,2.52
5,FQRRNMIEPRERAKFKRKYKQKLV,2.81
6,FQRRNMIEPRERAKFKRKYKSKLV,2.5
7,FQRRNMIEPRERAKFKRKYKKKLV,3.29
8,FQRRNMIEPRERAKFKRKYKDKLV,3.31
9,FQRRNMIEPRERAKFKRKYKHKLV,2.79
10,FQRRNMIEPRERAKFKRKYKVWLV,1.67
11,FQRRNMIEPRERAKFKRKYKVALV,1.93
12,FQRRNMIEPRERAKFKRKYKVVLV,2.03
13,FQRRNMIEPRERAKFKRKYKVMLV,2.37
14,FQRRNMIEPRERAKFKRKYKVSLV,1.94
15,FQRRNMIEPRERAKFKRKYKVGLV,2.97
16,FQRRNMIEPRERAKFKRKYKVELV,2.41
17,FQRRNMIEPRERAKFKRKYKVNLV,2.6
18,FQRRNMIEPRERAKFKRKYKVRLV,2.38
19,FQRRNMIEPRERAKFKRKYKVFLV,1.73
20,FQRRNMIEPRERAKFKRKYKVYLV,2.08
21,FQRRNMIEPRERAKFKRKYKVQLV,2.38
22,FQRRNMIEPRERAKFKRKYKVCLV,1.51

row,Variant,protein stability index
1,FQRRNMIEPRERAKFKRKYKVLLV,1.85
2,FQRRNMIEPRERAKFKRKYKVILV,1.27
3,FQRRNMIEPRERAKFKRKYKVHLV,1.72
4,FQRRNMIEPRERAKFKRKYKVDLV,2.27
5,FQRRNMIEPRERAKFKRKYKVPLV,2.38
6,FQRRNMIEPRERAKFKRKYKVTLV,1.89
7,FQRRNMIEPRERAKFKRKYKVKLC,2.25
8,FQRRNMIEPRERAKFKRKYKVKLQ,2.62
9,FQRRNMIEPRERAKFKRKYKVKLK,3.09
10,FQRRNMIEPRERAKFKRKYKVKLW,1.31
11,FQRRNMIEPRERAKFKRKYKVKLL,1.92
12,FQRRNMIEPRERAKFKRKYKVKLF,2.54
13,FQRRNMIEPRERAKFKRKYKVKLS,2.62
14,FQRRNMIEPRERAKFKRKYKVKLD,3.12
15,FQRRNMIEPRERAKFKRKYKVKLA,2.96
16,FQRRNMIEPRERAKFKRKYKVKLI,1.91
17,FQRRNMIEPRERAKFKRKYKVKLG,2.45
18,FQRRNMIEPRERAKFKRKYKVKLN,2.49
19,FQRRNMIEPRERAKFKRKYKVKLR,2.71
20,FQRRNMIEPRERAKFKRKYKVKLE,2.96
21,FQRRNMIEPRERAKFKRKYKVKLP,2.69
22,FQRRNMIEPRERAKFKRKYKVKLH,2.15

row,Variant,protein stability index
1,FQRRNMIEPRERAKFKRKYKVKLY,2.7
2,FQRRNMIEPRERAKFKRKYKVKLT,2.93
3,FQRRNMIEPRERAKFKRKYKVKLM,2.25
4,FQRRNMIEPRERAKFKRKGKVKLV,2.66
5,FQRRNMIEPRERAKFKRKCKVKLV,2.65
6,FQRRNMIEPRERAKFKRKFKVKLV,2.52
7,FQRRNMIEPRERAKFKRKAKVKLV,2.46
8,FQRRNMIEPRERAKFKRKRKVKLV,3.5
9,FQRRNMIEPRERAKFKRKVKVKLV,2.63
10,FQRRNMIEPRERAKFKRKIKVKLV,2.54
11,FQRRNMIEPRERAKFKRKWKVKLV,2.39
12,FQRRNMIEPRERAKFKRKDKVKLV,3.03
13,FQRRNMIEPRERAKFKRKHKVKLV,2.93
14,FQRRNMIEPRERAKFKRKLKVKLV,2.75
15,FQRRNMIEPRERAKFKRKEKVKLV,3.15
16,FQRRNMIEPRERAKFKRKNKVKLV,2.94
17,FQRRNMIEPRERAKFKRKKKVKLV,3.86
18,FQRRNMIEPRERAKFKRKTKVKLV,2.37
19,FQRRNMIEPRERAKFKRKMKVKLV,2.75
20,FQRRNMIEPRERAKFKRKSKVKLV,2.88
21,FQRRNMIEPRERAKFKRKQKVKLV,2.87
22,FQRRNMIEPRERAKFKRKPKVKLV,2.74
